From patent publication US20230131338A1 (Regeneron, published 2023)

Columns and labels:
[1] = target: T1, cynomolgus monkey FXI (in pooled cynomolgus monkey plasma) (cynomolgus monkey, UniProt A0A2K5VVW4 19-624); test: cell-based or functional assay
[2] = target: T1, cynomolgus monkey FXI (in pooled …); test: cell-based or functional assay; remark: listed apart in the source
[3] = target: recombinant mouse FXI with C-terminal myc-myc-hexahistidine tag (mFXI.mmH) (mouse, UniProt Q91Y47 19-624, limits assumed); test: SPR, REGN9933 surface-captured, 25°C, pH 7.4
[4] = target: recombinant rabbit FXI with C-terminal myc-myc-hexahistidine tag (rbFXI.mmH) (rabbit, UniProt G1SSQ6 19-623); test: SPR, REGN9933 surface-captured, mmH-tagged protein injected, 25°C, pH 7.4, 1:1 steady-state model

B1: REGN9933 (antibody, human IgG4 S228P, kappa, V domains shown)
VH: EVQLVESGGGLVQPGGSLRLSCAASGFTFSNYAMNWVRQAPGKGLDWVSFIRSGGDTTYYADSVKGRFTISRDNSKNTLYLQMNSLRAEDTAVYYCAKVHPYTWDYGDAFDIWGQGTMVTVSS
VL: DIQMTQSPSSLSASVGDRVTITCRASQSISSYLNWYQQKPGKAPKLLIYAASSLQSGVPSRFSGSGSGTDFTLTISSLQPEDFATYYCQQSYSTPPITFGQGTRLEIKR
notes: Fully human; hinge-stabilized IgG4 (IgG4P) Fc; also called H4H29790P2; subject anti-FXI mAb
For B1, the “concentration at which aPTT doubles relative to baseline, pooled cynomolgus monkey plasma” value [1] was 1.1 µM, the “Fold Increase in Clotting Time (aPTT w/EA), maximum change, monkey plasma” value [2] was 2.1 fold and the “TGA % ETP (induced w/EA), relative to baseline, monkey plasma” value [2] was 66%. For the same binder, the “TGA % Peak Thrombin (induced w/EA), relative to baseline, monkey plasma” value [2] was 43%, the “TGA Fold Increase in Lag Time (induced w/EA), maximum change, monkey plasma” value [2] was 2.2 fold and the binding result [3] was “no binding (tested: 50 nM)”. The Kd [4] was 171 nM.
